Assays:
Assay in all cases: Kinase Profiling Assay
Assay type in all cases: biochemical
Conditions in all cases: 100 μM
SAPK2a (h) = SAPK2a (h) (Homo sapiens, UniProt Q16539)
How it was run: (§1)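 Scintillation counting quantifies radiolabeled, positively charged substrate retained on a negatively charged filter after kinase reaction with labeled ATP; inhibitor peptide present.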

EGFR(T790M, L858R) (h) = target: T1, EGFR(T790M, L858R) (h) (Homo sapiens, UniProt P00533, L858R/T790M)
T1 construct: purchased Millipore
How it was run: as §1

MST2 (h) = target: T2, MST2 (h) (Homo sapiens, UniProt Q13188)
T2 construct: purchased Millipore
T2 sequence (Q13188 1-491): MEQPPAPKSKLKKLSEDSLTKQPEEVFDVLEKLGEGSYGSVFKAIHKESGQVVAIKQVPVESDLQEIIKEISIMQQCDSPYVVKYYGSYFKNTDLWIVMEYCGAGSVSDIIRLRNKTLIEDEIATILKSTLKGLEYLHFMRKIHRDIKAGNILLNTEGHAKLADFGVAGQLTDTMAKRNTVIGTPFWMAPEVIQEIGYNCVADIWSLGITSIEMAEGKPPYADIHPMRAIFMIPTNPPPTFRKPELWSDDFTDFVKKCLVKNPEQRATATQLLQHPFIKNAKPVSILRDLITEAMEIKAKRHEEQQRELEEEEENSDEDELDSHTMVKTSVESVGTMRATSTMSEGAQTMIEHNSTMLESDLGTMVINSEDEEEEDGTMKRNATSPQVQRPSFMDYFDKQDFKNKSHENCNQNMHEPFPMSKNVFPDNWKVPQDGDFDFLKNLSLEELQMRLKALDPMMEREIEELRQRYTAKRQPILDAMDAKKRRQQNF
How it was run: as §1

Fes (h) = Fes (h) (Homo sapiens, UniProt P07332)
How it was run: as §1

SRPK1 (h) = SRPK1 (h) (Homo sapiens, UniProt Q96SB4)
How it was run: as §1

TBK1 (h) = target: T3, TBK1 (h) (Homo sapiens, UniProt Q9UHD2)
T3 sequence (Q9UHD2 1-729): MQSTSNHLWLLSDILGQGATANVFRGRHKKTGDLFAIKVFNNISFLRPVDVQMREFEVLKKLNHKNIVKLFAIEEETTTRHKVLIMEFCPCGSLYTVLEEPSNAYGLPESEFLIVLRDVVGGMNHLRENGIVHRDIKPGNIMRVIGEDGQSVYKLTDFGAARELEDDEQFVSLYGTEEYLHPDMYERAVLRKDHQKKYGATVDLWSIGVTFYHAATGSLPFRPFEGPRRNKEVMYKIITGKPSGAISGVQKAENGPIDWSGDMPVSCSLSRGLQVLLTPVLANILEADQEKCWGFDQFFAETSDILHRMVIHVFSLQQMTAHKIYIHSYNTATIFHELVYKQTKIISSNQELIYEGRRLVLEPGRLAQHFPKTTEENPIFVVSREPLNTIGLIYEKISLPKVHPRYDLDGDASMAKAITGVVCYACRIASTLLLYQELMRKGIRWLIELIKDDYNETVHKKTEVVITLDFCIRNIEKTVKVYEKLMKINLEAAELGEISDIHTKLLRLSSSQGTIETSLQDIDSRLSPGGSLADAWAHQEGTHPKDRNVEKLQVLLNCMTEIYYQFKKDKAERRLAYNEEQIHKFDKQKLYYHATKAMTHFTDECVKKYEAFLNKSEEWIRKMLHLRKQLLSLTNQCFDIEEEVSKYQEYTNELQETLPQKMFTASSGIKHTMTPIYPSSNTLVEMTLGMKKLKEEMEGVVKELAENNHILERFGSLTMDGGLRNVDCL
How it was run: as §1

CDK5/p25 (h) = target: T4, CDK5/p25 (h) (Homo sapiens, UniProt Q00535)
T4 construct: purchased Millipore
How it was run: as §1

EphA8 (h) = target: T5, EphA8 (h) (Homo sapiens, UniProt P29322)
T5 sequence (P29322 28-1005): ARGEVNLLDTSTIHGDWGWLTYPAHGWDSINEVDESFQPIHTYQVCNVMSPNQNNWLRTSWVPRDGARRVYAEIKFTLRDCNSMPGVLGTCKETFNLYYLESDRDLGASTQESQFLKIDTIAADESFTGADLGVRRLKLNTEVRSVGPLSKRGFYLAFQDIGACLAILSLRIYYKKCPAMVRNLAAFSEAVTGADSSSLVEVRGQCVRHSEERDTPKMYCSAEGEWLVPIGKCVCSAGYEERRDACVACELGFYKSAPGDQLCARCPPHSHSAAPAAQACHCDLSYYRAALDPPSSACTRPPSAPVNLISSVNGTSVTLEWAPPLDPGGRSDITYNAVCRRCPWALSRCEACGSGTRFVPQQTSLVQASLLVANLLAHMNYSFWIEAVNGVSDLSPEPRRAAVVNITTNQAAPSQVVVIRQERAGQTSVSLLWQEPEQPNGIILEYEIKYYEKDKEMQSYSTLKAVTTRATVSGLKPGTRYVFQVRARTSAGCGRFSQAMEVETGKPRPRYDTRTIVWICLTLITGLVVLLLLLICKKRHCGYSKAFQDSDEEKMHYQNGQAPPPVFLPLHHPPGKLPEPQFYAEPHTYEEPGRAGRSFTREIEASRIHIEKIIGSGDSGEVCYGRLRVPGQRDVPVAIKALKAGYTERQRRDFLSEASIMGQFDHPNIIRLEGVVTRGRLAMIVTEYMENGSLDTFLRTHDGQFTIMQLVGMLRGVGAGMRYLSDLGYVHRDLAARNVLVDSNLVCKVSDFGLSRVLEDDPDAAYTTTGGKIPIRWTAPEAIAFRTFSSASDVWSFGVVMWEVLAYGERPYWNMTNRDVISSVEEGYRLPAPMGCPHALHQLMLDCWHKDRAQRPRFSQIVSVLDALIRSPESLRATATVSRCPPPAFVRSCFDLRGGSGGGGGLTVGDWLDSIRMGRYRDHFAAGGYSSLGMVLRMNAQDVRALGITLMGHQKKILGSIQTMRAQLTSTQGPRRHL
How it was run: as §1

Pim-3 (h) = target: T6, Pim-3 (h) (Homo sapiens, UniProt Q86V86)
T6 construct: purchased Millipore
How it was run: as §1

cKit(V654A) (h) = target: T7, cKit(V654A) (h) (Homo sapiens, UniProt P10721, V654A)
T7 construct: purchased Millipore
How it was run: as §1

Chain of SAPK2a (h) (Q16539 whole entry): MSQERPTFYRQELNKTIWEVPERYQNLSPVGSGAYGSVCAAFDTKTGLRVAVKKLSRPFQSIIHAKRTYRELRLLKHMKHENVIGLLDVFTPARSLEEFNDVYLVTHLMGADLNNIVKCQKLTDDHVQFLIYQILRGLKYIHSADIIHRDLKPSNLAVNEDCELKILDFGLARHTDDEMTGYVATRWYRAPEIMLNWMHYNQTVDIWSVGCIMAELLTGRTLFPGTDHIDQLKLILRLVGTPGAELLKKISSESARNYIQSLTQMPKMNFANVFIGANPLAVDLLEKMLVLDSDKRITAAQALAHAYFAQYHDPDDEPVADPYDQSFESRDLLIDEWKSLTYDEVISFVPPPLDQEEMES
Chain of Fes (h) (P07332 whole entry): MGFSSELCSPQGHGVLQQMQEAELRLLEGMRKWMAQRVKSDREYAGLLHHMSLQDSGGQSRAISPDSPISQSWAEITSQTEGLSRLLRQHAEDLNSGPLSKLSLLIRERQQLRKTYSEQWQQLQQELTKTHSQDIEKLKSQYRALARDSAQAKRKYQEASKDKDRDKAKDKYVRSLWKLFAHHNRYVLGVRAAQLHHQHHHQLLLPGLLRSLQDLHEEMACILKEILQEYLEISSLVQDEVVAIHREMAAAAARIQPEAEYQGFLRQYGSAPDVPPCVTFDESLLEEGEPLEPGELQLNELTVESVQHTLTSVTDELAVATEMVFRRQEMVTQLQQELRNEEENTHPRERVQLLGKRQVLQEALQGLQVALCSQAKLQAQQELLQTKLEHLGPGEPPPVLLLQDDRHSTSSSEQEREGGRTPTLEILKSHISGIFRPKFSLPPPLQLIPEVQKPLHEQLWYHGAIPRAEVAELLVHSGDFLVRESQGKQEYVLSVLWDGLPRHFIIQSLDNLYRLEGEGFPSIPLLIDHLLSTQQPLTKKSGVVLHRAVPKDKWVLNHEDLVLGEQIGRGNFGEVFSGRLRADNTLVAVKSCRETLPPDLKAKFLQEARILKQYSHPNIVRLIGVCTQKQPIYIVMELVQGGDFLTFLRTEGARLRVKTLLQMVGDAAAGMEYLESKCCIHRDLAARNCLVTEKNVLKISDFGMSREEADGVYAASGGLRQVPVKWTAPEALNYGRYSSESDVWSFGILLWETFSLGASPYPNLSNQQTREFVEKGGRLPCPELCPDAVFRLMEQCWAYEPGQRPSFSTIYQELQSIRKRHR
Chain of SRPK1 (h) (Q96SB4 whole entry): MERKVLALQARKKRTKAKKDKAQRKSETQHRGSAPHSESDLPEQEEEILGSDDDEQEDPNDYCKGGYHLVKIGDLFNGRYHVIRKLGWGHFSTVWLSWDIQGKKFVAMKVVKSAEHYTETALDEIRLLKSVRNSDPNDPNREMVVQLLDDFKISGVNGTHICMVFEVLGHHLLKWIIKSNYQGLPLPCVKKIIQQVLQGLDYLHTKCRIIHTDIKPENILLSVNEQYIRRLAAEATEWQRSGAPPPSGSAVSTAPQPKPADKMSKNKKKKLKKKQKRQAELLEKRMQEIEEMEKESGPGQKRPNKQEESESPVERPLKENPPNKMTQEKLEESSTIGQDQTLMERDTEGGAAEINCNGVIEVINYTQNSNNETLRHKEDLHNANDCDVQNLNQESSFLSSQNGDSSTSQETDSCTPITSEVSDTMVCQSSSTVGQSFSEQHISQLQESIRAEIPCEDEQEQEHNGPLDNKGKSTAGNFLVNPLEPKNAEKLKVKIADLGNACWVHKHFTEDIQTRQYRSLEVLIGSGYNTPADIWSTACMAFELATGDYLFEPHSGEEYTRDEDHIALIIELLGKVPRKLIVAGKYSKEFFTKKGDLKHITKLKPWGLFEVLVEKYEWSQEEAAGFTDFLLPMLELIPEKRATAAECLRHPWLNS
T4 sequence (Q00535 whole entry): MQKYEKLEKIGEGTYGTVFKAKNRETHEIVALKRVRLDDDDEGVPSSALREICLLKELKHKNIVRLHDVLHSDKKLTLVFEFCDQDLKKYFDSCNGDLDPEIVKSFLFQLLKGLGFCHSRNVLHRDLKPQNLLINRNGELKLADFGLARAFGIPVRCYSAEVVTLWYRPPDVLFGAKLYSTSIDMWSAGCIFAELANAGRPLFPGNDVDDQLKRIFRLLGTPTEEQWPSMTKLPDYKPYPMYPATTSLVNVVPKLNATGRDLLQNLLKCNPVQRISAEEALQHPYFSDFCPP
T4 sequence (Q15078 99-307 partner limits assumed): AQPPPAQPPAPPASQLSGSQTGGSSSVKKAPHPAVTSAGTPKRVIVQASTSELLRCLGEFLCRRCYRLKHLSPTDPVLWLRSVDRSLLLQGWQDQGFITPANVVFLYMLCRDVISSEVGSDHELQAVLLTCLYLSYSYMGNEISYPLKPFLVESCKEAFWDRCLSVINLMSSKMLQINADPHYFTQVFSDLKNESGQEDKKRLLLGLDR

Sequence	% activity (SAPK2a (h)) [%]	% activity (EGFR(T790M, L858R) (h)) [%]	% activity (MST2 (h)) [%]	% activity (Fes (h)) [%]	% activity (SRPK1 (h)) [%]	% activity (TBK1 (h)) [%]	% activity (CDK5/p25 (h)) [%]	% activity (EphA8 (h)) [%]	% activity (Pim-3 (h)) [%]	% activity (cKit(V654A) (h)) [%]
FAKLAARLYRKALARQLGVAA [MMI-0300]	90	85	19	20	90	37	89	93	80	134
HRRIKAWLKKIKALARQLGVAA (Mammalian) [MMI-0500]	52	53	2	23	80	16	66	337	37	223
KAFAKLAARLYRKALARQLGVAA [MMI-0400]	85	78	11	16	96	39	92	146	80	150
YARAAARQARAKALNRQLGVA (Mammalian) [MMI-0200]		108		74	93	98	97	133	94	

— patent US10500249B2, “Compositions and methods for preventing or treating diseases, conditions, or processes characterized by aberrant fibroblast proliferation and extracellular matrix deposition” (MOERAE MATRIX, INC., priority 2014, dated 2019)
